Patent US20040131610A1

Molecular target: Fc gamma receptor (Fc(γ)R) on dendritic cells
Test: cell-based or functional assay

DC uptake of apoptotic tumor cells: 300%
Substance: monoclonal antibody 3G4 (ATCC PTA 4545)
